From US20220048967A1 (published 2022) come the findings set out here.

Numbered stars: 1 amine (or outer) side, 2 acyl side, 3 side chain; on linkers, the order of the positions; unused ones are H or OH. Square brackets hold non-standard residues; d marks the D form. Side chains are listed from the residue outwards. Ends that are not written are not given here. * marks the point of attachment. C18 diacid = O=C(O)CCCCCCCCCCCCCCCCC(=O)*; γGlu = O=C(O)[C@H](CCC(=O)[*:2])N[*:1]; AEEA = NCCOCCOCC(=O)O; Aib = CC(C)(N)C(=O)O

Test [1] concerns the target T1, human gastric inhibitory peptide receptor (GIPR) (human, UniProt P48546 22-466).
T1 sequence (looked up): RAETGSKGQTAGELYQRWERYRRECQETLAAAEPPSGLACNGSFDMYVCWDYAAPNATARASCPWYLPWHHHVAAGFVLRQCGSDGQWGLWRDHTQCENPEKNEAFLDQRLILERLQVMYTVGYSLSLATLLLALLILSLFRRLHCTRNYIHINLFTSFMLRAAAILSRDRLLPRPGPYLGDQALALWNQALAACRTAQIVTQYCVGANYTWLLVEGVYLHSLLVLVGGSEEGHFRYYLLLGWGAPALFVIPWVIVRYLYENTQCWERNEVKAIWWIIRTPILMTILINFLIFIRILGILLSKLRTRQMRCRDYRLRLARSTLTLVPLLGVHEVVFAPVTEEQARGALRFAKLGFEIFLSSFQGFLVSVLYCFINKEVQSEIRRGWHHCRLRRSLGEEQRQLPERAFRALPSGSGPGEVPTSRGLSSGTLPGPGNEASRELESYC
Briefly: cell-based or functional assay.

The target of test [2] is human GLP-1 receptor (GLP-1R) (human, UniProt P43220 24-463). Put plainly: cell-based or functional assay.

B1: Example 297 (peptide)
peptide: Y[Aib]EGTFTSDYSILLDKK([AEEA-AEEA-γGlu-C18 diacid])AQ[Aib]EFIEYLIAGG-NH2
modifications: N-terminus assumed
SMILES: CC[C@H](C)[C@H](NC(=O)[C@H](CC(C)C)NC(=O)[C@H](Cc1ccc(O)cc1)NC(=O)[C@H](CCC(=O)O)NC(=O)[C@@H](NC(=O)[C@H](Cc1ccccc1)NC(=O)[C@H](CCC(=O)O)NC(=O)C(C)(C)NC(=O)[C@H](CCC(N)=O)NC(=O)[C@H](C)NC(=O)[C@H](CCCCNC(=O)COCCOCCNC(=O)COCCOCCNC(=O)CC[C@H](NC(=O)CCCCCCCCCCCCCCCCC(=O)O)C(=O)O)NC(=O)[C@H](CCCCN)NC(=O)[C@H](CC(=O)O)NC(=O)[C@H](CC(C)C)NC(=O)[C@H](CC(C)C)NC(=O)[C@@H](NC(=O)[C@H](CO)NC(=O)[C@H](Cc1ccc(O)cc1)NC(=O)[C@H](CC(=O)O)NC(=O)[C@H](CO)NC(=O)[C@@H](NC(=O)[C@H](Cc1ccccc1)NC(=O)[C@@H](NC(=O)CNC(=O)[C@H](CCC(=O)O)NC(=O)C(C)(C)NC(=O)[C@@H](N)Cc1ccc(O)cc1)[C@@H](C)O)[C@@H](C)O)[C@@H](C)CC)[C@@H](C)CC)C(=O)N[C@@H](C)C(=O)NCC(=O)NCC(N)=O
With B1, in test [1], the “hGIPR cAMP EC50 ratio” value was 3 and the “hGIPR cAMP Rel EC50” value amounted to 45.1 pM. Moreover, in test [2], the “hGLP1R cAMP EC50 ratio” value is 0.445 and the “hGLP1R cAMP Rel EC50” value stood at 111 pM.

B2: Example 294 (peptide)
peptide: Y[Aib]EGTFTSDYSILLDKK([AEEA-AEEA-γGlu-C18 diacid])AQQAFIEYLIEGG-NH2
modifications: N-terminus assumed
SMILES: CC[C@H](C)[C@H](NC(=O)[C@H](CC(C)C)NC(=O)[C@H](Cc1ccc(O)cc1)NC(=O)[C@H](CCC(=O)O)NC(=O)[C@@H](NC(=O)[C@H](Cc1ccccc1)NC(=O)[C@H](C)NC(=O)[C@H](CCC(N)=O)NC(=O)[C@H](CCC(N)=O)NC(=O)[C@H](C)NC(=O)[C@H](CCCCNC(=O)COCCOCCNC(=O)COCCOCCNC(=O)CC[C@H](NC(=O)CCCCCCCCCCCCCCCCC(=O)O)C(=O)O)NC(=O)[C@H](CCCCN)NC(=O)[C@H](CC(=O)O)NC(=O)[C@H](CC(C)C)NC(=O)[C@H](CC(C)C)NC(=O)[C@@H](NC(=O)[C@H](CO)NC(=O)[C@H](Cc1ccc(O)cc1)NC(=O)[C@H](CC(=O)O)NC(=O)[C@H](CO)NC(=O)[C@@H](NC(=O)[C@H](Cc1ccccc1)NC(=O)[C@@H](NC(=O)CNC(=O)[C@H](CCC(=O)O)NC(=O)C(C)(C)NC(=O)[C@@H](N)Cc1ccc(O)cc1)[C@@H](C)O)[C@@H](C)O)[C@@H](C)CC)[C@@H](C)CC)C(=O)N[C@@H](CCC(=O)O)C(=O)NCC(=O)NCC(N)=O
For the molecule B2, in test [1], the “hGIPR cAMP EC50 ratio” value stood at 0.75 and the “hGIPR cAMP Rel EC50” value is 183 pM. In test [2], the “hGLP1R cAMP EC50 ratio” value is 0.249 and the “hGLP1R cAMP Rel EC50” value was found to be 185 pM.

B3: Example 298 (peptide)
peptide: Y[Aib]EGTFTSDYSILLDKK([AEEA-AEEA-γGlu-C18 diacid])AQ[Aib]AFVEYLIEGGPSSG-NH2
modifications: N-terminus assumed
SMILES: CC[C@H](C)[C@H](NC(=O)[C@H](CC(C)C)NC(=O)[C@H](Cc1ccc(O)cc1)NC(=O)[C@H](CCC(=O)O)NC(=O)[C@@H](NC(=O)[C@H](Cc1ccccc1)NC(=O)[C@H](C)NC(=O)C(C)(C)NC(=O)[C@H](CCC(N)=O)NC(=O)[C@H](C)NC(=O)[C@H](CCCCNC(=O)COCCOCCNC(=O)COCCOCCNC(=O)CC[C@H](NC(=O)CCCCCCCCCCCCCCCCC(=O)O)C(=O)O)NC(=O)[C@H](CCCCN)NC(=O)[C@H](CC(=O)O)NC(=O)[C@H](CC(C)C)NC(=O)[C@H](CC(C)C)NC(=O)[C@@H](NC(=O)[C@H](CO)NC(=O)[C@H](Cc1ccc(O)cc1)NC(=O)[C@H](CC(=O)O)NC(=O)[C@H](CO)NC(=O)[C@@H](NC(=O)[C@H](Cc1ccccc1)NC(=O)[C@@H](NC(=O)CNC(=O)[C@H](CCC(=O)O)NC(=O)C(C)(C)NC(=O)[C@@H](N)Cc1ccc(O)cc1)[C@@H](C)O)[C@@H](C)O)[C@@H](C)CC)C(C)C)C(=O)N[C@@H](CCC(=O)O)C(=O)NCC(=O)NCC(=O)N1CCC[C@H]1C(=O)N[C@@H](CO)C(=O)N[C@@H](CO)C(=O)NCC(N)=O
For the molecule B3, in test [1], the “hGIPR cAMP EC50 ratio” value was determined as 2.87 and the “hGIPR cAMP Rel EC50” value worked out at 43 pM. Further, in test [2], the “hGLP1R cAMP EC50 ratio” value came to 0.507 and the “hGLP1R cAMP Rel EC50” value is 95.7 pM.

B4: Example 296 (peptide)
peptide: Y[Aib]EGTFTSDYSILLDKK([AEEA-AEEA-γGlu-C18 diacid])AQKAFIEYLIEGGPSSG-NH2
modifications: N-terminus assumed
SMILES: CC[C@H](C)[C@H](NC(=O)[C@H](CC(C)C)NC(=O)[C@H](Cc1ccc(O)cc1)NC(=O)[C@H](CCC(=O)O)NC(=O)[C@@H](NC(=O)[C@H](Cc1ccccc1)NC(=O)[C@H](C)NC(=O)[C@H](CCCCN)NC(=O)[C@H](CCC(N)=O)NC(=O)[C@H](C)NC(=O)[C@H](CCCCNC(=O)COCCOCCNC(=O)COCCOCCNC(=O)CC[C@H](NC(=O)CCCCCCCCCCCCCCCCC(=O)O)C(=O)O)NC(=O)[C@H](CCCCN)NC(=O)[C@H](CC(=O)O)NC(=O)[C@H](CC(C)C)NC(=O)[C@H](CC(C)C)NC(=O)[C@@H](NC(=O)[C@H](CO)NC(=O)[C@H](Cc1ccc(O)cc1)NC(=O)[C@H](CC(=O)O)NC(=O)[C@H](CO)NC(=O)[C@@H](NC(=O)[C@H](Cc1ccccc1)NC(=O)[C@@H](NC(=O)CNC(=O)[C@H](CCC(=O)O)NC(=O)C(C)(C)NC(=O)[C@@H](N)Cc1ccc(O)cc1)[C@@H](C)O)[C@@H](C)O)[C@@H](C)CC)[C@@H](C)CC)C(=O)N[C@@H](CCC(=O)O)C(=O)NCC(=O)NCC(=O)N1CCC[C@H]1C(=O)N[C@@H](CO)C(=O)N[C@@H](CO)C(=O)NCC(N)=O
With B4, in test [1], the “hGIPR cAMP EC50 ratio” value came out at 0.564 and the “hGIPR cAMP Rel EC50” value stood at 198 pM. In test [2], the “hGLP1R cAMP EC50 ratio” value was 0.82 and the “hGLP1R cAMP Rel EC50” value was 86.7 pM.

B5: Example 299 (peptide)
peptide: Y[Aib]EGTFTSDYSILLDKK([AEEA-AEEA-γGlu-C18 diacid])AQ[Aib]AFLEYLIEGGPSSG-NH2
modifications: N-terminus assumed
SMILES: CC[C@H](C)[C@H](NC(=O)[C@H](CC(C)C)NC(=O)[C@H](Cc1ccc(O)cc1)NC(=O)[C@H](CCC(=O)O)NC(=O)[C@H](CC(C)C)NC(=O)[C@H](Cc1ccccc1)NC(=O)[C@H](C)NC(=O)C(C)(C)NC(=O)[C@H](CCC(N)=O)NC(=O)[C@H](C)NC(=O)[C@H](CCCCNC(=O)COCCOCCNC(=O)COCCOCCNC(=O)CC[C@H](NC(=O)CCCCCCCCCCCCCCCCC(=O)O)C(=O)O)NC(=O)[C@H](CCCCN)NC(=O)[C@H](CC(=O)O)NC(=O)[C@H](CC(C)C)NC(=O)[C@H](CC(C)C)NC(=O)[C@@H](NC(=O)[C@H](CO)NC(=O)[C@H](Cc1ccc(O)cc1)NC(=O)[C@H](CC(=O)O)NC(=O)[C@H](CO)NC(=O)[C@@H](NC(=O)[C@H](Cc1ccccc1)NC(=O)[C@@H](NC(=O)CNC(=O)[C@H](CCC(=O)O)NC(=O)C(C)(C)NC(=O)[C@@H](N)Cc1ccc(O)cc1)[C@@H](C)O)[C@@H](C)O)[C@@H](C)CC)C(=O)N[C@@H](CCC(=O)O)C(=O)NCC(=O)NCC(=O)N1CCC[C@H]1C(=O)N[C@@H](CO)C(=O)N[C@@H](CO)C(=O)NCC(N)=O
With B5, in test [1], the “hGIPR cAMP EC50 ratio” value was found to be 0.146 and the “hGIPR cAMP Rel EC50” value turned out to be 932 pM. In test [2], the “hGLP1R cAMP EC50 ratio” value was 0.0244 and the “hGLP1R cAMP Rel EC50” value amounted to 2540 pM.

B6: Example 300 (peptide)
peptide: YXEGTFTSDYSIXLDKKAQXAFIEYLIEGGPSSG
modifications: Aib2, αMeL13, (2-[2-(2-Amino-ethoxy)-ethoxy]-acetyl)2-(γ-Glu)-CO-(CH2)16-CO2H on K17, Aib20, C-terminal NH2
Regarding B6, in test [1], the “hGIPR cAMP EC50 ratio” value stood at 5.38 and the “hGIPR cAMP Rel EC50” value was determined as 23.4 pM. In addition, in test [2], the “hGLP1R cAMP EC50 ratio” value was found to be 0.636 and the “hGLP1R cAMP Rel EC50” value is 86.7 pM.

B7: Example 301 (peptide)
peptide: YXEGTXTSDYSILLDKKAQXAFIEYLIEGGPSSG
modifications: Aib2, αMeF6, (2-[2-(2-Amino-ethoxy)-ethoxy]-acetyl)2-(γ-Glu)-CO-(CH2)16-CO2H on K17, Aib20, C-terminal NH2
Turning to B7, in test [1], the “hGIPR cAMP EC50 ratio” value was found to be 4.11 and the “hGIPR cAMP Rel EC50” value is 34.6 pM. Further, in test [2], the “hGLP1R cAMP EC50 ratio” value was found to be 1.61 and the “hGLP1R cAMP Rel EC50” value amounted to 44.1 pM.

B8: Example 302 (peptide)
peptide: YXEGTXTSDYSILLDKKAQXAFIEYLIEGGPSSG
modifications: Aib2, αMeF(2F)6, (2-[2-(2-Amino-ethoxy)-ethoxy]-acetyl)2-(γ-Glu)-CO-(CH2)16-CO2H on K17, Aib20, C-terminal NH2
For the molecule B8, in test [1], the “hGIPR cAMP EC50 ratio” value was 3.78 and the “hGIPR cAMP Rel EC50” value was determined as 30.8 pM. Also, in test [2], the “hGLP1R cAMP EC50 ratio” value turned out to be 1.96 and the “hGLP1R cAMP Rel EC50” value was 27.5 pM.

B9: Example 295 (peptide)
peptide: Y[Aib]EGTFTSDYSILLDKK([AEEA-AEEA-γGlu-C18 diacid])AQHAFIEYLIEGG-NH2
modifications: N-terminus assumed
SMILES: CC[C@H](C)[C@H](NC(=O)[C@H](CC(C)C)NC(=O)[C@H](Cc1ccc(O)cc1)NC(=O)[C@H](CCC(=O)O)NC(=O)[C@@H](NC(=O)[C@H](Cc1ccccc1)NC(=O)[C@H](C)NC(=O)[C@H](Cc1c[nH]cn1)NC(=O)[C@H](CCC(N)=O)NC(=O)[C@H](C)NC(=O)[C@H](CCCCNC(=O)COCCOCCNC(=O)COCCOCCNC(=O)CC[C@H](NC(=O)CCCCCCCCCCCCCCCCC(=O)O)C(=O)O)NC(=O)[C@H](CCCCN)NC(=O)[C@H](CC(=O)O)NC(=O)[C@H](CC(C)C)NC(=O)[C@H](CC(C)C)NC(=O)[C@@H](NC(=O)[C@H](CO)NC(=O)[C@H](Cc1ccc(O)cc1)NC(=O)[C@H](CC(=O)O)NC(=O)[C@H](CO)NC(=O)[C@@H](NC(=O)[C@H](Cc1ccccc1)NC(=O)[C@@H](NC(=O)CNC(=O)[C@H](CCC(=O)O)NC(=O)C(C)(C)NC(=O)[C@@H](N)Cc1ccc(O)cc1)[C@@H](C)O)[C@@H](C)O)[C@@H](C)CC)[C@@H](C)CC)C(=O)N[C@@H](CCC(=O)O)C(=O)NCC(=O)NCC(N)=O
Consider B9, for which, in test [1], the “hGIPR cAMP EC50 ratio” value is 0.481 and the “hGIPR cAMP Rel EC50” value is 281 pM. In addition, in test [2], the “hGLP1R cAMP EC50 ratio” value stood at 0.398 and the “hGLP1R cAMP Rel EC50” value amounted to 116 pM.
